What was measured:
[1] = target: T1, human BCMA on cells (HEK293T/huBCMA; NCI-H929) (human, UniProt Q02223 1-184); test: FACS on HEK293T/huBCMA cells
T1 construct: whole, on cells; also called human BCMA molecules on NCI-H929 cell line
T1 sequence (looked up): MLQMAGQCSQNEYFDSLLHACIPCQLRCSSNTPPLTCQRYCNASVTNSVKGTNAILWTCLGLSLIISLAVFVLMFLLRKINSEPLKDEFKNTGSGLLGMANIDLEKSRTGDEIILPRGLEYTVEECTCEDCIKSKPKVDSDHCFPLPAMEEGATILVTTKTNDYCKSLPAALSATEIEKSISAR
Description: (§1) To study the in vitro binding activity of the BCMA arm of the BCMA×CD3 bispecific antibody, HEK293T cell strain overexpressing human BCMA (HEK293T/huBCMA) and HEK293T cell strain overexpressing cynomolgus monkey BCMA (HEK293T/cynoBCMA) were used for antibody binding experiments at cellular level. Briefly, HEK293T/huBCMA cells and HEK293T/cynoBCMA cells were digested and resuspended with DMEM complete medium. The cell density of the two was adjusted to 1×10⁶ cells/mL, respectively. Cells were inoculated at 100 μL cells/well in a 96 well V-bottom plate (Corning, Cat#: 3894), followed by the addition of test antibodies at 100 μL/well, which is gradient diluted at 3 folds of the concentration with 2 folds of the final concentration. Cells were incubated at 4° C. for 1 hour in the dark. Afterwards, the cells were washed twice with 100 μL/well of pre-cooled PBS, centrifuged at 500 g for 5 min at 4° C., and followed by discarding the supernatant. 100 μL/well of fluorescent secondary antibody (Alexa Fluor 488-conjugated AffiniPure Goat Anti-Human IgG, Fcγ Fragment Specific, Jackson, Cat#: 109-545-06, 1:500 dilution) was added and incubated for 30 min at 4° C. in the dark. […] Finally, the cells were resuspended with 200 μL/well of pre-cooled PBS, and the fluorescence luminescence signal values were read by BD FACS CANTOII. […]

[2] = target: T1, human BCMA on cells (HEK293T/huBCMA; …); test: FACS on HEK293T cell strain overexpressing human BCMA [C]
Description: as §1

[3] = target: T2, cynomolgus monkey BCMA on cells (HEK293T/cynoBCMA) (cynomolgus monkey, UniProt A0A2K5UD97 1-183); test: FACS on HEK293T cell strain overexpressing cynomolgus monkey BCMA [C]
T2 construct: whole, on cells
Description: as §1

[4] = target: T1, human BCMA on cells (HEK293T/huBCMA; …); test: cell-based or functional assay
[5] = target: T3, human CD3e/g ECD-hFc recombinant protein (human, UniProt P07766 23-126; P09693 23-116); test: Biacore, antigen coupled to a CM5 chip, PR003178 injected at 12-0.375 nM, 1:1 kinetic fit [E]
T3 construct: extracellular domain; Bought from ChemPartner; not shown: human Fc
Method: (§2) Human BCMA-Fc, Avitag recombinant protein (ACRO, Cat. BC7-H82F0), cynomolgus monkey BCMA-Fc, Avitag (ACRO, Cat. BCA-C82F4) were purchased from ACRO, human CD3e/g ECD-hFc recombinant protein (Lot.20190508002), cynomolgus monkey CD3e/g ECD-hFc recombinant protein and human (Lot.2018040001) were purchased from ChemPartner.
(§3) The flow rate was set as 10 μl/min and four antigens were coupled on four channels on two CMS: 1) the injection time was set as 300 s, and 50 mM of NHS and 200 mM of EDC were freshly mixed at 1:1 volume ratio and injected into four channels; 2) human BCMA-Fc, Avitag recombinant protein, cynomolgus monkey BCMA-FC, Avitag, human CD3e/g ECD-hFc recombinant protein and cynomolgus CD3e/g ECD-hFc recombinant protein were all diluted to 1 μg/ml with sodium acetate (Cat# BR-1003-50) (pH 4.5), and injected into channel 2, 3 and 4 of chip 1 and channel 2 of chip 2, respectively; 3) 1 M of ethanolamine (pH8.5) was injected for 300 s to block the remaining active carboxyl groups on the chips surface. After blockage, the instrument was continued to be equilibrated with 1 ×HBS- EP+buffer for two hours. The final coupling amounts of human BCMA-Fc, Avitag recombinant protein, cynomolgus monkey BCMA-Fc, Avitag, human CD3e/g ECD-hFc recombinant protein and cynomolgus monkey CD3e/g ECD-hFc recombinant protein were 120 RU, 70 RU, 200 RU and 290 RU, respectively.
(§4) A multi-cycle kinetic mode was set, and each cycle included the binding of PRO03178 as well as the regeneration of the chip. PRO03178 with two-fold gradient dilution was injected into four channels at a flow rate of 30 μl/min. A binding time of 180 s and a dissociation time of 400 s or 600s were set. Finally, 10 mM of glycine-hydrochloric acid (pH 1.5) (GE Life Sciences, Cat# BR-1003-54) was injected at the same flow rate for 60 s to regenerate the chip.

[6] = target: T4, human BCMA-Fc, Avitag recombinant protein (ACRO, Cat. BC7-H82F0) (human, UniProt Q02223 1-54); test: as above
T4 construct: extracellular domain; Bought reagent; amine-coupled to the CM5 chip in the Biacore assay; also called recombinant human BCMA-ECD-Fc; human BCMA recombinant protein; not shown: Fc and Avitag of the bought protein
T4 sequence (looked up): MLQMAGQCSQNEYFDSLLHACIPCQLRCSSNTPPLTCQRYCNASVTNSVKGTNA
Method: as §2, §3, §4

[7] = target: T1, human BCMA on cells (HEK293T/huBCMA; …); test: FACS on NCI-H929 cells

T3 sequence (P07766 23-126, chain 1 of 2): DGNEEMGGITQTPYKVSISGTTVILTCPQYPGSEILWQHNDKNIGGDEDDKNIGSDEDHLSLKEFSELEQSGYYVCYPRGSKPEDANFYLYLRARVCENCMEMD
T3 sequence (P09693 23-116, chain 2 of 2): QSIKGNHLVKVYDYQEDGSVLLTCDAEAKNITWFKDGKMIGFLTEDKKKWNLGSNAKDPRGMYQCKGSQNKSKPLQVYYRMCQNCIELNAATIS
T2 sequence (A0A2K5UD97 entry or part of it): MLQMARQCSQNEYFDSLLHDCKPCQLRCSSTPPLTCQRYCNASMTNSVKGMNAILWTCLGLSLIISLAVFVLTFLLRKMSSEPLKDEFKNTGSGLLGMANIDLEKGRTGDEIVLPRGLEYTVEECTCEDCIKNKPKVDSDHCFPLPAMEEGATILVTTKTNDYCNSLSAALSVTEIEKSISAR

B1: BCMA x CD3 bispecific antibody PR003178 (bispecific antibody, human IgG1, lambda, L234A L235A)
heavy 1: not shown
light: QAVVTQEPSLTVSPGGTVTLTCRSSTGAVTTSNYANWVQQKPGQAPRGLIGGTNKRAPWTPARFSGSLLGDKAALTLLGAQPEDEAEYFCALWYSNLWVFGGGTKLTVLGQPKAAPSVTLFPPSSEELQANKATLVCLISDFYPGAVTVAWKADSSPVKAGVETTTPSKQSNNKYAASSYLSLTPEQWKSHRSYSCQVTHEGSTVEKTVAPTECS
heavy 2: EVQLVETGGGLIQPGGSLRLSCAASGFTVSDNYMTWVRQAPGKGLEWVSVIFSGGNTYYADSVKGRFTISRDNAKNTLYLQMNSLRAEDTALYYCARRNYDDTRGTDVFDIWGQGTMVTVSSGGGGSGGGGSGGGGSEVQLVETGGGLIQPGGSLRLSCAASGFTVSDNYMTWVRQAPGKGLEWVSVIFSGGNTYYADSVKGRFTISRDNAKNTLYLQMNSLRAEDTALYYCARRNYDDTRGTDVFDIWGQGTMVTVSSASEPKSSDKTHTCPPCPAPEAAGGPSVFLFPPKPKDTLMISRTPEVTCVVVDVSHEDPEVKFNWYVDGVEVHNAKTKPREEQYNSTYRVVSVLTVLHQDWLNGKEYKCKVSNKALPAPIEKTISKAKGQPREPQVCTLPPSREEMTKNQVSLSCAVKGFYPSDIAVEWESNGQPENNYKTTPPVLDSDGSFFLVSKLTVDKSRWQQGNVFSCSVMHEALHNHYTQKSLSLSPGK
notes: Three chains: HC1 (anti-CD3 heavy, knob, LALA), LC (anti-CD3 lambda light), HC2 (two tandem anti-BCMA VH of PR001046 joined by (G4S)3, then Fc hole, LALA); also called PRO03178
For B1, which “fold lower EC50 than positive control 2” value [1] is on record?
Its value is ~5 fold.

And the EC50 [2]?
The EC50 was 188 pM.

What about the EC50 [3] of the same binder?
The EC50 was 921 pM.

And the “EC50 of the killing curve (LDH release, human PBMC effector cells, NCI-H929 target cells), fold against positive control 2” value [4]?
Its value is 10 fold.

What about the koff [5] of the same binder?
The koff was 0.0149 s⁻¹.

What about the kon [5] of the same binder?
The kon was 588000 M⁻¹ s⁻¹.

And the koff [6]?
Its koff is 0.000167 s⁻¹.

What about the kon [6] of the same binder?
Its kon is 1.76e+06 M⁻¹ s⁻¹.

What about the “fold lower EC50 than positive control 2” value [7] of the same binder?
The value was ~8 fold.
